# B1: Thermotoga maritima UvrA (natural protein)
# chain: MNEIVVKGARVHNLKNITVRIPKNRLVVITGVSGSGKSSLAMDTIYAEGQRRYLESLSTYARQFLGNLKKPDVDEIEGLSPAIAIDQKTVSHNPRSTVGTVTEIYDYLRVLYARIGKAHCPECGRPLEKKSIDEILQDLFNSFKEGSRIYILAPVATEKKGTFKKEIEEFISKGFARIEIDGEIYRLEEVPELDKNKRHTVKLVVDRLILETRNEHRILDSLELAMREGKGFVEIRNVDTGESKIFSENLMCPVCGIGFPEITPKLFSFNSPYGACPNCHGLGFTFEVDPSLVIDEEKSVLEGAIIPYRWDRRLSRWVAREIEKRGVSPHLPFKDLPEDVKEFILYGDDRFEGVVPKVQRWHRETESPEMKEWLEKNFIVQRTCSVCGGRRLNREALSVKINGLNIHEFTELSISEELEFLKNLNLTEREREIVGELLKEIEKRLEFLVDVGLEYLTLSRSATTLSGGESQRIRLATQIGSGLTGVIYVLDEPTIGLHPRDTERLIKTLKKLRDLGNTVIVVEHDEEVIRNADHIIDIGPGGGTNGGRVVFQGTVDELLKNPDSSLTGEYLSGKRKITVNKTRRLPYASLKIKGVRHNNLKNIDVEIPLGVFVCVTGVSGSGKSSLVMETLYPALMNLLHKTKLPAGEFDSIEGHENIDKMIAIDQSPIGRTPRSNPATYTKVFDEIRSLFAMTPAAKARGYNKSRFSFNLKGGRCEACQGQGYVKIEMLFLPDVYVECDVCKGKRYNRETLEITYKGKNISDILDMTVDEALEFFKNIPSIKRTLQVLHDVGLGYVKLGQPATTLSGGEAQRIKLASELRKRDTGRTLYILDEPTVGLHFEDVRKLVEVLHRLVDRGNTVIVIEHNLDVIKNADHIIDLGPEGGKEGGYIVATGTPEEIAKNPHSYTGRFLKNVL
# notes: UvrA, Thermotoga maritima; theoretical MW of the dimer printed as 205.8 kDa; the modelling section counts residues 1-916; In the assays it stood with fluorescein-modified DNA, ADP and Mg2+; also called Tm-UvrA; T. maritima (Tm) UvrA; source: BL21 STAR (DE3), pET28-SUMO based plasmid, purified (nickel resin, Ulp1 digestion, nickel resin, gel filtration)
# B2: Thermus thermophilus UvrB (natural protein, UniProt Q56243 1-665, looked up)
# chain: MTFRYRGPSPKGDQPKAIAGLVEALRDGERFVTLLGATGTGKTVTMAKVIEALGRPALVLAPNKILAAQLAAEFRELFPENAVEYFISYYDYYQPEAYVPGKDLYIEKDASINPEIERLRHSTTRSLLTRRDVIVVASVSAIYGLGDPREYRARNLVVERGKPYPREVLLERLLELGYQRNDIDLSPGRFRAKGEVLEIFPAYETEPIRVELFGDEVERISQVHPVTGERLRELPGFVLFPATHYLSPEGLEEILKEIEKELWERVRYFEERGEVLYAQRLKERTLYDLEMLRVMGTCPGVENYARYFTGKAPGEPPYTLLDYFPEDFLVFLDESHVTVPQLQGMYRGDYARKKTLVDYGFRLPSALDNRPLRFEEFLERVSQVVFVSATPGPFELAHSGRVVEQIIRPTGLLDPLVRVKPTENQILDLMEGIRERAARGERTLVTVLTVRMAEELTSFLVEHGIRARYLHHELDAFERQALIRDLRLGHYDCLVGINLLREGLDIPEVSLVAILDADKEGFLRSERSLIQTIGRAARNARGEVWLYADRVSEAMQRAIEETNRRRALQEAYNLEHGITPETVRKEVRAVIRPEGYEEAPLEADLSGEDLRERIAELELAMWQAAEALDFERAARLRDEIRALEARLQGVRAPEPVPGGRKRKRR
# notes: theoretical MW printed as 76.2 kDa; Two UvrB monomers stand in the complex, one on each side of the UvrA dimer; The complex is heterologous (T. maritima UvrA with T. thermophilus UvrB); also called Tt-UvrB; Thermus thermophilus (Tt) UvrB; source: BL21-CodonPlus(DE3)-RIL, pET28 based plasmid, purified (nickel resin, HRV 3C digestion, nickel resin, gel filtration)
# How the values were obtained:
# [1] = biological target: the molecule itself; test: SEC-MALS; UvrA dimer (2.5 mg/ml) mixed 1:1 with self-annealed DNA (32 bp ds region, two fluorescein-modified thymines, 10 nt 5' overhangs), UvrB at two-fold molar excess over the UvrA dimer; dialysed at 4 °C against 20 mM HEPES pH 7.0, 150 mM NaCl, 5% glycerol, 1 mM DTT, 10 mM MgCl2; 1 mM ADP added; BioSuite High Resolution SEC column with MALS detector
# Thermotoga maritima UvrA = biological target: B1; test: as above; conditions: both partners purified
stoichiometry N (Thermotoga maritima UvrA) [UvrB per UvrA dimer],Binder,stoichiometry N [1]
–,B1,2
2,B2,–
